Data as given in the supplement of paper PMC10266784.

B1: library; numbered along this chain (parent)
chain: MAAAAAAAAEQQSSNGPVKKSMREKAVERRSVNKEHNSNFKAGYIPIDEDRLHKTGLRGRKGNLAICVIILLFILAVINLIITLVIWAVIRIGPNGCDSMEFHESGLLRFKQVSDMGVIHPLYKSTVGGRRNENLVITGNNQPIVFQQGTTKLSVENNKTSITSDIGMQFFDPRTQNILFSTDYETHEFHLPSGVKSLNVQKASTERITSNATSDLNIKVDGRAIVRGNEGVFIMGKTIEFHMGGNMELKAENSIILNGSVMVSTTRLPSSSSGDQLGSGDWVRYKLCMCADGTLFKVQVTSQNMGCQISDNPCGNTH

Variants of: B1
Test: SGCB cell-surface expression functional score (HA stain, bin4 vs bin1, normalised to synonymous) (log10 ratio); higher = more cell-surface SGCB (functional)
Summary of the method: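 The functional score is a log ratio of variant frequency in the highest versus the lowest intensity bin, expressed as a median over codons and duplicate transductions. Codon-saturation libraries of HA-tagged, YFP-fused human beta-sarcoglycan were transduced by lentivirus at MOI <0.1 into HEK293 cells stably expressing alpha-, gamma- and delta-sarcoglycan, and the cells were stained on ice with Alexa Fluor 647 anti-HA, fixed and sorted into four 5% intensity bins before amplicon sequencing. Synonymous variants were scaled to mean 0, SD 0.5 within each section.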

| Variant | SGCB cell-surface expression functional score (log10) |
| --- | --- |
| I82F | 0.01 |
| Q201C | 0.43 |
| V118H | -0.23 |
| M100N | -2.37 |
| Q112D | -0.16 |
| E104F | -0.24 |
| V300R | -0.27 |
| E28A | -0.15 |
| V77H | -0.48 |
| L153Y | -1.24 |
| L216I | -0.71 |
| T213I | 0.5 |
| K297F | -0.47 |
| L287M | -2.09 |
| R23P | 0.31 |
| A88M | -0.05 |
| K25N | 0.42 |
| D311W | 0.22 |
| I208H | -1.66 |
| S254E | 1.37 |
| N39R | -0.29 |
| K152I | 0.14 |
| I208V | 0.49 |
| D115A | -1.73 |

| Variant | SGCB cell-surface expression functional score (log10) |
| --- | --- |
| S161L | 0.12 |
| I208K | -1.11 |
| T126W | 0.62 |
| I178G | -0.44 |
| I82G | -0.2 |
| Q308I | -0.15 |
| Q176N | 0.38 |
| P143N | -0.09 |
| D215N | 0.41 |
| F110H | -0.19 |
| L52A | 0.22 |
| A224Y | -0.45 |
| Y285L | -0.66 |
| Q299G | -0.02 |
| G16A | -0.31 |
| D115Y | -0.03 |
| I69L | 0.2 |
| R267N | 0 |
| H120W | 0.14 |
| T163P | -1.3 |
| S193M | -0.52 |
| E240F | 0.84 |
| S13D | 0.05 |
| I82K | 0.1 |

| Variant | SGCB cell-surface expression functional score (log10) |
| --- | --- |
| F102N | -1.53 |
| K250N | 0.48 |
| Q112L | -0.73 |
| P121L | 0.04 |
| Q176R | 0.16 |
| T265R | 0.4 |
| E35Y | 0.26 |
| G149T | -0.75 |
| R131S | -0.09 |
| N211Q | -0.03 |
| L135T | -1.04 |
| M289H | -0.85 |
| S254H | 0.41 |
| Q112R | 0.07 |
| R60H | -0.21 |
| R131M | 0.59 |
| S254F | 0.96 |
| I86W | -2.19 |
| S193N | 0.79 |
| Q169V | -0.23 |
| D98P | -0.12 |
| L268D | 0.78 |
| K111Y | -0.7 |
| T265A | 0 |

| Variant | SGCB cell-surface expression functional score (log10) |
| --- | --- |
| N140A | -0.08 |
| D221R | 0.19 |
| L277N | 0.08 |
| G222R | -0.06 |
| I81K | -0.06 |
| M235S | 0.53 |
| M100S | -2.02 |
| T301P | -0.57 |
| M289P | -1.06 |
| H190G | 0.07 |
| F296K | -1.28 |
| L249F | 0.71 |
| N177Q | 1.3 |
| R29E | 0.41 |
| Q308H | -0.29 |
| L57R | 0.07 |
| S114F | -0.89 |
| E35G | 0.11 |
| T301K | 0.28 |
| P46E | 0.1 |
| R51E | 0.04 |
| V200I | 0.17 |
| I208L | 0.3 |
| S264W | -0.2 |

| Variant | SGCB cell-surface expression functional score (log10) |
| --- | --- |
| N140G | 0.06 |
| R227H | 0.55 |
| A26S | 0.09 |
| I162K | -1.11 |
| A9D | 0.38 |
| T205S | -0.16 |
| C290N | -0.11 |
| S210G | -0.16 |
| F233R | 0.69 |
| S38M | -0.54 |
| R91K | 0.34 |
| S99A | -0.01 |
| M168C | -0.84 |
| Y44F | 0.02 |
| G167Y | -1.42 |
| S260C | 0.5 |
| F110M | -0.98 |
| C307A | -0.28 |
| N211L | -0.58 |
| G222L | 0.26 |
| E24T | 0.2 |
| I255S | -0.08 |
| L295H | -0.62 |
| M235H | 0.69 |

| Variant | SGCB cell-surface expression functional score (log10) |
| --- | --- |
| K159E | -0.7 |
| L57G | 0.28 |
| S105H | 0 |
| L191E | -1.09 |
| Q147F | -0.65 |
| V226D | -1.82 |
| G194P | -0.58 |
| N15I | 0.04 |
| Y123I | -0.3 |
| I208G | -1.48 |
| E35N | 0.01 |
| Q12E | 0 |
| I255T | -0.76 |
| Y123P | 0.1 |
| D115L | -1.17 |
| N79E | 0.06 |
| E185T | -1.1 |
| Q142G | -0.22 |
| L135S | -1.11 |
| K34W | 0.11 |
| T83F | -0.77 |
| R51P | 0.04 |
| I256G | 0.26 |
| A3L | -0.02 |

| Variant | SGCB cell-surface expression functional score (log10) |
| --- | --- |
| G245S | 0.78 |
| E10L | 0.02 |
| M289A | -1 |
| F40I | 0.24 |
| K237E | 0.47 |
| T138S | 0.4 |
| V32Y | -0.45 |
| I70R | -0.16 |
| E252K | 0.57 |
| G236Y | -1.44 |
| Q169L | -0.69 |
| A3D | 0.14 |
| R109A | -0.33 |
| I47Q | 0.68 |
| A224W | -1.5 |
| M100T | -1.55 |
| L135V | -0.35 |
| T138F | 0.14 |
| F73E | 0.42 |
| T160C | -0.14 |
| L191V | -0.49 |
| A212F | -0.4 |
| G315A | -0.11 |
